This series is described as follows: label from the status in PepcDB records.
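Note: failed if final PepcDB status was selected cloned or expressed and not failed if soluble or beyond.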

For “MGEEAALDSFVKLEETLGEDEPCTARIIAPSSRAVLQSPTPPLPLKPHFLTNFPKYWSRPYLQAVPLHCQWERIPELVKQLSAKLIANDDMAELLLGESKLEQHLKEKPLRQGASPRGPRPQLTEVRKHLTAALDRGNLKSEFLQESNLVMAKLNYVEGDYKEALNIYARVGLDDLPLMAVPPYRLRMIAEAYATKGLCLEKLPVSSSTSNLHVDREQDVITCYEKAGDIALLYLQEIERVILTNIQNRSPKPGPAPHDQELGFFLETGLQRAHVLYFKNGNLTRGVGRFRELLRAVETRTTQNLRMTIARQLAEILLRGMCEQSYWNPLEEPPCQSPLDDPLRKGANTKTYTLPRRARVYSGENIFCPQENTEEALLLLLISESMANRDAVLSRIPEHKSDRLISLQSASVVYDLLTIALGRRGQYEMLSECLERAMKFAFEEFHLWYQFALSLMAAGKSARAVKVLKECIRLKPDDATIPLLAAKLCVGSLHWLEEAEKFAKTVVDVGEKTSEFKAKGYLALGLTYSLQATDASLRGMQEVLQRKALLALQRAHSLSPTDHQAAFYLALQLAISRQIPEALGYVRQALQLQGDDANSLHLLALLLSAQKHHHDALNIIDMALSEYPENFILLFSKVKLESLCRGPDEALLTCKHMLQIWKSCYNLTNPSDSGRGSSLLDRTIADRRQLNTITLPDFSDPETGSVHATSVAASRVEQALSEVASSLQSSAPKQGPLHPWMTLAQIWLHAAEVYIGIGKPAEATACTQEAANLFPMSHNVLYMRGQVAELRGNFDEARRWYEEALSISPTHVKSMQRLALVLHQLGRYSLAEKILRDAVQVNSTAHEVWNGLGEVLQAQGNDAAATECFLTALELEASSPAVPFTVIPRVL”, the protein production entry is “failed”.

As to “MGEEEAVAEENGGLKVESGEQKSSWPTMRFDVSPYRTHHFSKQFRTARNPNNFLKGLKWSPDGSCFLASSEDNTLSLFHLPQDGGDSNGYGVPVPEEDSYGASLLVNEGESVYDFCWYPYMSVSDPLTCVFATSTRDHPIHLWDSTSGELRCTYRAYDAMDEITAAFSVGFNPDGTKIFAGYNSSIRVFDLHRPGRDFRQYSTLQKNKEGQAGILSTLAFSPTNSGMLAVGSYGQTTGIYREDNMELLYVLHGQEGGVTHVQFSKDGNYLYTGGRKDPYILCWDIRKSVEIVYKLYRATENTNQRVFFDIEPCGRHLGTGGQDGLVHMYDLQTGNWVSGYQAASDTVNAFSFHPYLPMAATSSGHRRFAIPDDDDGEDKNELQLKADENCVSLWSFYVEDNTYDENNGVASESHLQNVTEEIVLT”, the protein production result was “failed”.

Regarding “MGEGGQRATPSVTKIVGGEMAARVRAFDWSKTPLGPREDWSPALRLATDIVLASNFPMALRWGPELVLIYNDGYAPALHERHPSALGQSFYDTTPEFQAALRELHQDILTGTSGGFAFERLPLKVLKNGVLEAAYFTVNYSPVPDETAPNGIGGVLVAAVEISQSVKAEQTLRATQERYQ”, the protein production entry is listed as “failed”.

As for “MGELIYGEVKKQTKDGFIIDLGDNAEAYLAREEMIAKEILRPKQRMNAILYSVNREGRGAQLLLSRARPEMLMALMKKEIPLEHHHHHH”, the protein production entry is given as “failed”.

On to “MGENVLICLCGSVNSINISHYIIELKSKFDEVNVIASTNGRKFINGEILKQFCDNYYDEFEDPFLNHVDIANKHDKIIILPATSNTINKIANGICDNLLLTICHTAFEKLSIFPNMNLRMWENPVTQNNIRLLKDYGVSIYPANISESYELASKTFKKNVVAPEPYKVLEFI”, for which the protein production result is “not failed”.

With “MGERGVEMRLRIRFESAECEVELYEEWAPETVRAIADALPIKSTANRWGDEIYFTTQVAVEKEENSKDVVELGDVAYWIPGKAICLFFGKTPISDDKIRPASAVNVIGRIVNSMEGLKGVADGESVVVERA”, the protein production entry is listed as “not failed”.

On to “MGERIALATREGAPLAAYHAPPLEARRGGIVMLHAIWGVTPHLRQLSDSLAEQGYEVMLPSLMDAADAAFPVEDTTPSILDARMAMGERTGWGASTLPRVQACIDALNGPVYAMGFCYGGTTAWLAACRCEGLSAVSAFYGGDIAAYRDETPKVPTILHFGKTDTMIPLSAVDAVRDRHPDLPVYLYDAGHAFVAPSGHHPDSARLALLRTLQLFQR”, for which the protein production result was “failed”.

With “MGESGLTNEIDELHEEVTAVSAPGVKPPAQAGRRNIWLKVLISATAFYILLLVALLVTGNPNLFPSLVMVGNFTVPVAYVAFLYERKNFSRLKMPIVSLAFLYGGLVGIIATSFIGPLFITQFNPGDILAVGLVEEFAKILGVVVIARRRRHVLEMDGLILGAAVGMGFAALESTGYAFTAFLISNGSISAVLEVTLFRGLLAPLGHGTWTAILASVLFRESRDCCFRVNLRVIGAYLLVSILHAMWNGLSLVLAPFTGLGLGAIITWALVGFIGLYVLWRRWREAVRLKPVLLPERENV”, the protein production result is “failed”.

In the case of “MGETVVRDAVTIGKPAEQLYAVWRDLPGLPLLMTHLRSVEVLDDKRSRWTVEAPAPLGTVSWEAELTADEPGKRIAWRSLPGARIENSGEVLFRPAPGARGTEVVVRLTYRPPGGSAGAVIARMFNQEPSQQLRDDLMRFKREQELGLEHHHHHH”, the protein production result is listed as “not failed”.

Take “MGFEVRRRLSVADTVTLFNAVVGFVAGAIAFTDPHLAARLILLAVIADAIDGIVARNGDSSAVGPLLDSVTDVVSFGATPSLFLYVLLTDAYGGIESAHPAVFVGLALLASAYVVCSIVRTAFYSTYFDSPDERPGMPNTLGSIIIATAYLSGITNPLVLSVGALGLSLAMIAPFDYPKPGPKHAVPMGVVQAVAVVAPAALFRAGPRAMLAIALLFFALGPWFYPGE”: the protein production result is on record as “failed”.

In the case of “MGFKCGIVGLPNVGKSTLFNALTKAGIEAANFPFCTIEPNTGVVPMPDPRLDQLAEIVKPQRTLPTTMEFVDIAGLVKGASKGEGLGNQFLTNIRETEAIGHVVRCFENDNIIHVSGKVNPADDIEVINTELALADLDTCERAIHRVQKKAKGGDKDAKAELAVLEKCLPQLENAGMLRALDLSAEEKAAIRYLSFLTLKPTMYIANVNEDGFENNPYLDQVREIAAKEGSVVVPVCAAVEADIAELDDEERDEFMQELGLEEPGLNRVIRAGYKLLNLQTYFTAGVKEVRAWTIPVGATAPQAAGKIHTDFEKGFIRAQTISFEDFITYKGEQGAKEAGKMRAEGKDYIVKDGDVMNFLFNV”, the protein production result is recorded as “not failed”.

On to “MGFLQPRLPDIDLAEWSQGSRSQKIRPMAQHWAEVGFGTPVLLHLFYVAKILLYVLVGWLIVLTTKGIDGFTDAAAWYAEPIVFEKVVLYTMLFEVIGLGCGFGPLNNRFFPPMGSILYWMRFGTIRLPPWPDRVPWTRGTKRKPVDVALYALLVMMLLSALFTDGAGPIPELGTTVGLLPAWQIVLILLLLGVLGLRDKVIFLAARGEVYATLTVTFLFGRLNGIDMIVAAKLVFLVIWIGAATSKLNRHFPFVISTMMSNNPLFRPRFIKRMFFKKFPGDLRPGLLSRIVAHVSTVIEMCVPVVLFVAHGGWPTVVAATIMVCFHLGILTAIPMGVPLEWNVFMIFGVLSLFVGHACLGLADVKNPVPLAILIAVVAGIVIAGNVFPRKISFLAAMRYYAGNWDTTLWCIKPSAEDKINRGIVAIASMPAAQLERFYGKDRAQIPMYLGYAFRAMNSHGRALFTLAHRAMAGHDEDDYVITDGERVCSTAVGWNFGDGHLHNEQLIAAMQQRCGFQPGEVRVVLLDAQPIHRQTQEYRLVDAATGEFERGYVRVADMVNRQPWDDDVPVHVLPG”, for which the protein production result was “failed”.

As for “MGFSDAGIYLSDPNNLCQTELGFFHEPSLGFSDQSDPQNEFHITPPIYQELQDQDLEPKSQETNNCSRKEGATVKKEEEEEDDYCKTPTRSDQILSAMPRICPPAPRKPKRVPSRSLKVRNSYRSKRMIILNVSREIDCLFNPTSLCNKIKKARYI”, the protein production entry is listed as “failed”.
